Test: yeast display, Sf9 membrane polyspecificity reagent, FACS + sequencing; frameworks hold sequencing errors
Outline: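 Sorting gates, low and high (top ~1%), were placed on anti-HA fluorescence to track expression and on streptavidin fluorescence to track reagent binding. A clone's polyreactivity label is taken from the gate it came out of. The reagent was 10% biotinylated, detergent-solubilized Sf9 membrane, applied for 1 hour at 4 °C to galactose-induced yeast display cells.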

| Sequence | polyreactivity (PSR sort gate) |
| --- | --- |
| QVQLVESGGGLVQAGGSLRLSCAASGRTSAINAMGWYRQAPGKERELVADITRTGGTYADSVKGRFTISRDNAKNTVYLQMNSLKPEDTAVYYCAAVGPWRFDYWGQGTQVTVSS | high polyreactivity |
| QVQLVESGGGLVQAGGSLRLSCAASGRTSDEYAMGWYRPAPGKERELVAAITSGGSTNYADSVKGRFTISRDNAKNTVYLQMNSLKPEDTAVYYCAADNIRTWRPIYDYWGQGTQVTVSS | low polyreactivity |
| QVQLVESGGGLVQAGGSLRLSCAASGRTSEIYTMGWYRQAPGKERELVASINTNYADSVKGRFTISRDNAKNTVYLQMNSLKPEDTAVYYCNADDTIEFNYWGQGTQVTVSS | low polyreactivity |
| QVQLVESGGGLVQAGGSLRLSCAASGRTSFYNAMGWYRQAPGKERELVAAISYRGTRTYYADSVKGRFTISRDNAKNTVYLQMNSLKPEDTAVYYCAKDSGYYTADDYDYWGQGTQVTVSS | low polyreactivity |
| QVQLVESGGGLVQAGGSLRLSCAASGRTSGFNTMGWYRQAPGKERELVAAISFSGGSTYYADSVKGRFTISRDNAKNTGYLQMNSLKPEDTAVYYCAAELERDEEYDYWGQGTQVTVSS | low polyreactivity |
| QVQLVESGGGLVQAGGSLRLSCAASGRTSGNYAMGWYRQAPGKERELVAAIRYSGSSTFYADSVKGRFTISRDNAKNTVYLQMNSLKPEDTAVYYCARDIRRKGFRYDYWGQGTQVTVSS | high polyreactivity |
| QVQLVESGGGLVQAGGSLRLSCAASGRTSKVYAMGWYRQAPGKERELVARITSSGVRTYYADSVKGRFTISRDNAKNTVYLQMNRLKPEDTAVYYCAKDARALWLHSGIYDYWGQGTQVTVSS | low polyreactivity |
| QVQLVESGGGLVQAGGSLRLSCAASGRTSLAYAMGWYRQAPGKERELVAGITSGGNTNYADSVKGRFTISCDNAKNTVYLQMNSLKPEDTAVYSCNKKKRWQWYSESVLDYLGFYSWGQGTQVTVSS | low polyreactivity |
| QVQLVESGGGLVQAGGSLRLSCAASGRTSRSYAMGWYRQAPGKERELVAAISWSGGSTYYADSVKGRFTMSRDNAKNTVYLQMNSLKPEDTAGYYCNALTLAGYDYWGQGTQVTVSS | high polyreactivity |
| QVQLVESGGGLVQAGGSLRLSCAASGRTSSINAMGWYRKAPGKERELVAVITGGGRTSYADSVKGRFTISRDNAKNTVYLQMNSLKPEDTAVYYCNATRSYYGYYYWGQGTQVTVSS | high polyreactivity |
| QVQLVESGGGLVQAGGSLRLSCAASGRTSTIYTMGWYRQAPGKEREIVASISAGAGTYYADSVKGRFTISRDNAKNTVYLQLNSLKPEDTAVYYCNASVYWRSTRRHQMDYWGQGTQVTVSS | high polyreactivity |
| QVQLVESGGGLVQAGGSLRLSCAASGRTSVKYAMGWSRQAPGKERELVATIRYRTASTYYADSVKGRFTISRDNAKNTVYLQMNSPKPEDTAVYYCAAATSYASPWWYLYYYWGQGSQVTVSS | high polyreactivity |
| QVQLVESGGGLVQAGGSLRLSCAASGRTSVLYAMGWYRQAPWKEREFVAAITWNSGSTYYADSVKGRFTISRDNAKNTVYLQMNSLKPEDTAVYYCNADYYFSSYRSTYDYWGQGTQVTVSS | low polyreactivity |
| QVQLVESGGGLVQAGGSLRLSCAASGRTSVRNAMGWYRQAPGKERELVAAISRRGTRTYYADSVKGRFTISRDNAKNTVYLQMNSLKPEDTAVYYCAASNGYQAVTYDYWGQGTQVTVSS | high polyreactivity |
| QVQLVESGGGLVQAGGSLRLSCAASGRTSVWYTMGWYRQAPGKEREFVASITGSGTYYADSVKGRFTISRDNAKNTVYLQMNSLKPEDTAVYYCAKRGYGYWGQGTQVTVSS | high polyreactivity |
| QVQLVESGGGLVQAGGSLRLSCAASGRTSYLYALGWYRQAPGKERELVAAISRGVGSTYYADSVKGRFTISRDNAKNTVYLQMHSLKPEDTAVYYCAAYRYTPWMYYWGQGTQVTVSS | high polyreactivity |

| Sequence | polyreactivity (PSR sort gate) |
| --- | --- |
| QVQLVESGGGLVQAGGSLRLSCAASGRTSYTYVMGWYRQAPGTERELVAAIRLSGGNTYYADSVKGRFTISRDNAKNTVYLQMNSLKPEDTAVYYCAAHYWRHRKAYGYWGQGTQVTVSS | high polyreactivity |
| QVQLVESGGGLVQAGGSLRLSCAASGRTSYVYAMGWYRQAPGKERELVAAITSSGASTYYADSVKGRFTISRDNAKNTVYLQMNSLKPEDTAVFYCAAETYPVWGVAFYYWGQGTQVTVSS | high polyreactivity |
| QVQLVESGGGLVQAGGSLRLSCAASGRTVTYYVMGWYRQAPGNERELVARITSSGITYYADSVKGRFTISRDNAKNTVYLQMNSLKPEDTAVYYCAKRRNAWTPYRFDYWGQGTQVTVSS | high polyreactivity |
| QVQLVESGGGLVQAGGSLRLSCAASGRTVVNAMGWYRQAPGKERELVAAISSNGGRTYYADSVKGRFTISRDNAKNTVYLQMNSLKPEDTAVYYCATRWIKGRKMDYWGQGTQVTVSS | high polyreactivity |
| QVQLVESGGGLVQAGGSLRLSCAASGRTVVNAMGWYRQAPGKERELVAAISSNGGRTYYADSVKGRFTISRDNAKNTVYLQMTSLKPEDTAVYYCAKGLGIRPTYYYWGQGTKVTVSS | high polyreactivity |
| QVQLVESGGGLVQAGGSLRLSCAASGRTVYANAMGWYRQAPGKERELVAAISTGGDGTYYADSVKGRFTISRDNAKNPVYLQMNSQKPEDTAVYYCAVRHRASGMLYDYWGQGTQVTVSS | low polyreactivity |
| QVQLVESGGGLVQAGGSLRLSCAASGRTYFDYTMGWYRQAPGKERELVAAINRSGVSTYYADSVKGRFTISRDNAKNTVYLQMNSLKPEDTAVYYCNADRGPPKLEYDPVIMDYWGQGTQVTVSS | low polyreactivity |
| QVQLVESGGGLVQAGGSLRLSCAASGRTYGYAMGWYRQAPGKERELVARNTWRGGSTSYADSVKGRFTISRDNAKNTVYLQMNSLKPEDTAVYYCAATYGTGRRSKYGYWGQGTQVTVSS | high polyreactivity |
| QVQLVESGGGLVQAGGSLRLSCAASGRTYHAYAMGWYRQAPGKGRELVAAITRTGTTHYADSVKGRFTISRDNAKNTVYLQMTSLKPEDTAVYYCAAQHVRVDAQFVLQGYDYWGQGTQVTVSS | low polyreactivity |
| QVQLVESGGGLVQAGGSLRLSCAASGRTYIVNVMGWYRQAPGKERELVAAINWSTGRTYYADSVKGRFTISRDNAKNTVYLQMNSLKPEDTAVYYCAAEEFDSFWWGYYEMDYWGQGTQVTVSS | high polyreactivity |
| QVQLVESGGGLVQAGGSLRLSCAASGRTYPYAMGLYRQAPGKEREFVAAITSSGGSTYYADSVKGRFTISRDNAKNTVYLQMNSLKPEDTAVYYCAAEYYFLEYDYWGQGTQVTVSS | low polyreactivity |
| QVQLVESGGGLVQAGGSLRLSCAASGRTYQDNAMGWYRQEPGTERELVAAISFNSDSTYYADSVKGRFTISRDNAKNTVYLQMNSLKPEDTAVYYCAAQVVPTLYLRPLDYWGQGTQVTVSS | low polyreactivity |
| QVQLVESGGGLVQAGGSLRLSCAASGRTYRAYTMGWYRQAPGKERELVAAISTPGGSTYYADSVKGRFTISRDNAKKTVYLQMIILKPEDNAVYYCAAGTFYYWLSYDYWGQGTKVTVSS | low polyreactivity |
| QVQLVESGGGLVQAGGSLRLSCAASGRTYRVYAMGWYRQAPGKERELVASITRGGGTYADSVKGRFTISRDNAKNTVYLQMNSLKAEDTAVYYCNARWHRSTGGRQRYDYWGQGTQVTVSS | high polyreactivity |
| QVQLVESGGGLVQAGGSLRLSCAASGRTYSIYAMGLYRQEPGNEREMVAAISNGGRTKYADSVKGRFTISRDNAKNTVYLQMNSLKPEDTAVYYCAASSYTNKRYPSPYDYWGQGTQVTVSS | high polyreactivity |
| QVQLVESGGGLVQAGGSLRLSCAASGRTYVRNAMGWYRQAPGKERELVAGITRSGGSTYYADSVKGRFTISRDNAKNTVYLQMNSLKPEDTAVYYCAKRYDVYVGTVRPYDYWGQGTQVTVSS | low polyreactivity |

From the nanobody polyreactivity screen of Harvey et al. (2022)
